Data set [1] has as its target MBD2b (GST-tagged, purified) (Homo sapiens, UniProt Q9UBB5 150-411). Nature of the data set: EMSA; multiple shifts; EMSA: 20 mM HEPES pH 7.9, 1 mM EDTA, 3 mM MgCl2, 10 mM beta-mercaptoethanol, 10% glycerol, 0.1% Triton X-100, 2 ug BSA, 10 ng poly(dI-dC), 30 min on ice; pull-down: 150 mM NaCl, 50 mM Tris pH 8.0, 0.25% NP40, 0.5 mM DTT, poly(dI-dC), 2 h 4 C. Particulars: protein: recombinant; tags: GST; label: 32P. Background: Mobility shift assays separate free from complexed probe on a gel.

Data set [2] deals with RBP-J (GST-tagged, purified) (Homo sapiens, UniProt Q06330 1-500). Nature of the data set: EMSA; multiple shifts; supershift with one of two antibodies; EMSA: 20 mM HEPES pH 7.9, 1 mM EDTA, 3 mM MgCl2, 10 mM beta-mercaptoethanol, 10% glycerol, 0.1% Triton X-100, 2 ug BSA, 10 ng poly(dI-dC), 30 min on ice; pull-down: 150 mM NaCl, 50 mM Tris pH 8.0, 0.25% NP40, 0.5 mM DTT, poly(dI-dC), 2 h 4 C. Particulars: protein: recombinant; tags: His/GST; label: 32P.
Sequence of RBP-J (GST-tagged, purified) (Q06330 whole entry): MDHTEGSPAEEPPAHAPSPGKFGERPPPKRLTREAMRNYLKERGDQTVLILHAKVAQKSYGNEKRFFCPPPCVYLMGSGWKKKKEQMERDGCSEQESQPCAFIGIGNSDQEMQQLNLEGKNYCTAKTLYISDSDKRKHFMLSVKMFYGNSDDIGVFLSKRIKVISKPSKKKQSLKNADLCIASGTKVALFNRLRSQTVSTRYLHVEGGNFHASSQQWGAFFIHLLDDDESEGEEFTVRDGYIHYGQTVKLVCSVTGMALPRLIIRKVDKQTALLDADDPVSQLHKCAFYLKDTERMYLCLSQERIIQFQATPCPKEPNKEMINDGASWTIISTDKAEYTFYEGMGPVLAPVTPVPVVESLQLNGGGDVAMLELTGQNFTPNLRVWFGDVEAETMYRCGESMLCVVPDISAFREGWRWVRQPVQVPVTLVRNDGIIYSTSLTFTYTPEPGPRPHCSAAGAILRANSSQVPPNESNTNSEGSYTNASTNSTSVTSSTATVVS

Sequence of MBD2b (GST-tagged, purified) (Q9UBB5 150-411): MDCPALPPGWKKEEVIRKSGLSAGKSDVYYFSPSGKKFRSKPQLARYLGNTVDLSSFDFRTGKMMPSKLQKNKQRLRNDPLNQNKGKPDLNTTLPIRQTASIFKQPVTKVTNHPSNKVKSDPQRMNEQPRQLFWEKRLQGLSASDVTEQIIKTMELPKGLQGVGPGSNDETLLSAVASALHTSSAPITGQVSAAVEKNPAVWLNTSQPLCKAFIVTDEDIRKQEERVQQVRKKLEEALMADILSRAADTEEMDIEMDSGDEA

B1: GSTP1 CpG-island oligo, methylated (EMSA) (dsDNA)
DNA 1: AAGCAGACACTGGCAGGTTTCGGCGGGAGTCCGCGGGACCCTCCAGAAGAGCGGCCGGCGCCGTGACCTAAGGCTAAGGCTCATA
DNA 2: TTTATGAGCCTTAGCCTTAGGTCACGGCGCCGGCCGCTCTTCTGGAGGGTCCCGCGGACTCCCGCCGAAACCTGCCAGTGTCTGC
modifications: 5-methylcytosine at CpG (M.SssI)
For the molecule B1, the binding result in data set [1] and in data set [2] was “binds” in each case.

For the origin of these results see PMC3185043, “A SILAC-Based Screen for Methyl-CpG Binding Proteins Identifies RBP-J as a DNA Methylation and Sequence-Specific Binding Protein”.
